The results in this text go back to the nanobody polyreactivity screen of Harvey et al. (2022).

A short description of the data set: yeast display, Sf9 membrane polyspecificity reagent, FACS + sequencing; frameworks hold sequencing errors. Put shortly: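 Synthetic nanobody libraries on Saccharomyces cerevisiae BJ5465 were galactose-induced for 36–48 hours, stained 1 hour at 4 °C with 10% biotinylated, detergent-solubilized Sf9 membrane reagent and enriched on streptavidin microbeads. FACS then separated cells into low and high (top ~1%) gates by anti-HA (expression) and streptavidin (reagent binding) fluorescence. Genes were colony-PCR amplified, MiSeq 2 × 250 sequenced and CDR-length filtered. A clone's polyreactivity label is that of its gate of origin.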
On to “QVQLVESGGALVQAGGSLRLSCAASAITYRYYAMGWNRQAPGKERELVATITRSGGSTYYADSVKGRFTISRDNAKNTVYLQMNSLKPEDTAVYYCAKGLYSTRYYYWGQGTQVTVSS”, for which the “polyreactivity (PSR sort gate)” value is on record as “high polyreactivity”. For the sequence “QVQLVESGGALVQAGGSLRLSCAASGFIFYSYAMGWYRHAPGKETELVAAITEDGDSTYYADSVKGRFTISRDNAKNTVYLQMNSLKPEDSAVYYCNTDLTFNGTSGDYDYWGQGTLVTVSS”, the “polyreactivity (PSR sort gate)” value is “low polyreactivity”. The same measure for “QVQLVESGGALVQAGGSLRLSCAASGNTFQRYTMGWYRQAPGKERELVAAITWSGGNTYYADSVKGRFTISRDNAKNSVYLQMNSLKPEDTAVYDCNADYPTTAYDYWGQGTQVTVSS”: “low polyreactivity”; for “QVQLVESGGALVQAGGSLRLSCAASGRIFRGYAMGWYRQAPGKERELVAAISSRGSRTYYADSVKGPFTISRDNAKNTVYLQMNSLKPEDTAVYYCAADVPGVTTSYAPYDSEYWGQGSQVTVSS”: “high polyreactivity”; for “QVQLVESGGALVQAGGSLRLSCAASGRIFWDYVMGWYRQAPGKEREFVAAISLDGNITYYADSVKGRFTISRDNAKNTVYLQMNSLKPEDTAVFYCAADQYFFFRARGYDYWGQGTQVTVSS”: “low polyreactivity”.

As to “QVQLVESGGALVQAGGSLRLSCAASGSIFDDNAMGWYRQAPGKERELVAAITGSGGRTYYADSVKGRFTISRDNAQNTVDLQMNSLKPEDTAVYYCAAQGAYNYFNAWYGYEYWGQGTQVTVSS”, the “polyreactivity (PSR sort gate)” value is recorded as “high polyreactivity”. The same measure for “QVQLVESGGALVQAGGSLRLSCAASGSIFGFYMGWYRQAPGKERELVAAISGSGGNTYYADSVKGRFTISRDNAKNTVYLQMNSLKPEDTSVYYCAAERWDLWLLYDYWGQGTQVTVSS”: “high polyreactivity”; for “QVQLVESGGALVQAGGSLRLSCAASGSIFIHYAMGWSRQAPGKERELVAAISRTGSTYYADSVKGRFTISRDNAKNTVYLQMNSLKPLDTAVYYCAKRISTRRYDFWGQGTQVTVSS”: “low polyreactivity”; for “QVQLVESGGALVQAGGSLRLSCAASGSIFLFNTMGWYRQAPGKETELVAVISGGGITYYADSVKGRFTISRDNAKNTVYLQMNSLKPEDTAVYYCAADGGYWSQYDYWGQGTQVTVSS”: “low polyreactivity”.

In the case of “QVQLVESGGALVQAGGSLRLSCAASGSIFSEYAMGWYRQAPGKERELVAAISRSGGTTYYADSVKGRFSISRDNAKNTVYLQMNSLKPEDTAVYYCAARYFRGSYPMGYWGQGTQVTVSS”, the “polyreactivity (PSR sort gate)” value was “high polyreactivity”.

For “QVQLVESGGALVQAGGSLRLSCAASGSIFTGYAMGWYRQAPGKERELVAAISSRGGSTYYADSVKGRFTISRDNATNTVYLQMNSLKPEDTAVYYCNAVYSGRFLRRDYWGQGTQVTVSS”, the “polyreactivity (PSR sort gate)” value is reported as “high polyreactivity”.

As for “QVQLVESGGALVQAGGSLRLSCAASGSIFVSNAMGWYRQAPGKERELVAAISQSGGSTYYADSVKGRFTISRDNAKNTVYLQMNSLKPEDTAVYYCATPIRSGFRIYDYWGQGTQVNVSS”, the “polyreactivity (PSR sort gate)” value was “low polyreactivity”. The entry for “QVQLVESGGALVQAGGSLRLSCAASGSTFAYNAMGWYRQAPVKERELVAAITWNGGDTYYADSVKGRFTISRDNAKNTVYLQMNSLKPEDTAVYYCAAEDTYYRDSDYWGQGTQVTVSS” is “low polyreactivity”; for “QVQLVESGGALVQAGGSLRLSCAASGSTFFKYGMGWYRQAPGKERELDATISSRGGNTSYADSVKGRFTISRDNAKNTVYLQMNSLKPEDTAVYYCNAGGDEPVYGSGYDYWGQGTQVTVSS” it is “low polyreactivity”; for “QVQLVESGGALVQAGGSLRLSCAASGSTFKVYAMGWYRQAPGKERELVAAISFSGGTTYYADSVNGRFTISRDYAKNTVSLQRNSLKPEDTAVFYCAADGSTWYSYYYWGLGTQVTVSS” it is “high polyreactivity”.

On to “QVQLVESGGALVQAGGSLRLSCAASGSTFLGYTMGWYRQAPGKERELVAAITSSGGRTYYADSVKGRFTISRDNAKYTVYLQMNSLIPEDTAVYYCATREYYPYSTRYSISYDYWGQGTQVTVSS”, for which the “polyreactivity (PSR sort gate)” value was “high polyreactivity”.

On to “QVQLVESGGALVQAGGSLRLSCAASGSTIRDYAMGWYRQAPRKERELVAVIDNSGGRTYYADSVKGRFTISRDNAKNTVYLQMNSLKPEDTAVYYCNAYAYPFRGGYWGQGTQVTVSS”, for which the “polyreactivity (PSR sort gate)” value is “high polyreactivity”.

On to “QVQLVESGGALVQAGGSLRLSSAASGSIFGSNGIGSYRPAPGKERELVAAITRSGGSTRYADSVKGRFTISRDNAKNTVYLQMNSLKPEDTAVYYCAKYDTSTGYDYWGQGTQVTVSS”, for which the “polyreactivity (PSR sort gate)” value is listed as “high polyreactivity”.

As for “QVQLVESGGALVQAGGSLRLSSAASGSTFYLNAMGWYRQAPGKERELVAAITVSGGSTYYADSVKGRFTISRDNAKNTVYLQMNSLKPEDTAVYYCARELLSPTYQRWYYYWGQGTQVTVSS”, the “polyreactivity (PSR sort gate)” value is given as “low polyreactivity”. Regarding “QVQLVESGGALVQAGGSLRLTCAASGRTFYYYAKGWYRPAPGTERELVAAISCSGGRTYYADSVKGRFTISRDNANDTVYVPMNSLKPEDTAVFYCYAEPPSGYTVSSGGEMDYWGQGTQVTVSS”, the “polyreactivity (PSR sort gate)” value was “low polyreactivity”. The same measure for “QVQLVESGGALVQAGGTRRLSCAASASTYPYAMGWYRQDPAKERELVAAITWSGGNTYFADSVKGRFTISRDNAKNSVYLQMNSMKPEDTAFYYCAALIGYRVFRYNYWGQGTQLTVSS”: “high polyreactivity”. For “QVQLVESGGCLDQAGGRLRLSCAASGSTFYDYVMGWYRQAPGKERELVAVISSSGSTNYADSVKGRVTISRDNAKNTVYLQMNSLKPEDTAVYYCAVDPFRRWWETIFDEYDYWGQGTQVTVSS”, the “polyreactivity (PSR sort gate)” value is on record as “low polyreactivity”. The entry for “QVQLVESGGCLFQAGGSLRLSCAASGSTFYWYTMGWYRQAHGKERELVSTMTTVGRTNYADSVKGRFTISRDNAKNTVYLQMKSLKPEVTAVYYCAASKARWPRGGCKYYYWRQGTQVTVSS” is “high polyreactivity”; for “QVQLVESGGCLVHAGGSLRLSCAASGFTFRWYAMGWYRQAPGKERELVASISRRGGSTYYADSVKGRFTISRDNEKNTVYLQMNSLKPEDSAVYYCAADYYDYWGQGTQVTVSS” it is “high polyreactivity”; for “QVQLVESGGCLVQAGGILRLSCAASGSIFVGYDMGWYRQAPGKERELVAAITGTVSTYYADSVKGRFTISRDNAKNTVYLQMNSLKPEDTAVYYCAAEFVYAYGDGGVYWSWMEYWGQGTQVTVSS” it is “low polyreactivity”. In the case of “QVQLVESGGCLVQAGGILRLSCAASGYTFFLYAMGWYRQAPGKERELVAAINNGGGSTYYADSVKGRFTISRDNAKNTVYLQMNSLKPEDTAVYYCAVRVARGYRYGYWGQGTQVTVSS”, the “polyreactivity (PSR sort gate)” value is recorded as “high polyreactivity”. The entry for “QVQLVESGGCLVQAGGRLRLSCAASGFTFGYYAMGWYIQAPGKERELVAAIDWSGGTTYYADSVKGRFTISRDNAKNTVYLQMNSLKPEDTAVYYCAADVVEEDDLEFYYWGQGTQVTVSS” is “high polyreactivity”; for “QVQLVESGGCLVQAGGRLRLSCAASGRTFTGYTMGWYRQAPGKEREFVAAIRKSGGSTYYADSVKGRFTISRDNAKNTVYLQMNSLKPEDTAVYYCASRYRYYYTRYDYWGQGTQVTVSS” it is “high polyreactivity”. The same measure for “QVQLVESGGCLVQAGGSLPLSSAASGSTFSYNDMGSDRQAPGKARELVADINVSVGRTYYADSVKGRFTISRDNAKNTVYLQMNSLKPEDTAVYYCAKDYYRYHYYYCGQGTQVTVSS”: “low polyreactivity”; for “QVQLVESGGCLVQAGGSLRFTCAASGSIFPYYAMGWYRQAPGKERELVAAISGSGGSTYYADSVTGRFTISRDNAKYTVYLQMNSLNQEDTAVYYCAARPFARYEYWGQGTQVTVSS”: “low polyreactivity”. “QVQLVESGGCLVQAGGSLRLICAASGGLFGTYTMGWYRQAPGKERELVAAIRSSSGRTYYADSVKGRFTISRDNAKNTVYLQMNILKPEDTAVYYCNAKYYGYRVGKYYPFGYWGQGTQVTVSS”: the “polyreactivity (PSR sort gate)” value is on record as “high polyreactivity”.

Take “QVQLVESGGCLVQAGGSLRLSCAASGFIFGSNVMGWYRQAPGKERELVAAISYSGASTYYADSVKGRFTISRDNAKNTVYLQMNSLKPEDTAVYYCNAESYYFYWPVYSYDYWGQGTQVTVSS”: the “polyreactivity (PSR sort gate)” value is “low polyreactivity”. The same measure for “QVQLVESGGCLVQAGGSLRLSCAASGFTFGRYAMGWYRQAPGKEREFVAAISYTGTSTYYADSVKGRFTISRDNAKNTVYLQMNSLKPEDTAVYYCNAVHPGTVAYDSWGQGTQVTVSS”: “high polyreactivity”.

As to “QVQLVESGGCLVQAGGSLRLSCAASGFTFGRYVMGWYRQAPGKERELVAGINQSGGRTNYADSVKGRFTISRDNAKNTVYLQMNSLKPEDTAVYYCAALRSWRKTGGAQRYWYDYWGQGTQVTVSS”, the “polyreactivity (PSR sort gate)” value is listed as “high polyreactivity”.

As for “QVQLVESGGCLVQAGGSLRLSCAASGGIFYPNAMGWYRQAPGKEREFVASITRSGGSTYYADSVKGRFTISRDNAKNTVYLQLNSLTPEDTAVYDCAAAYKSLYTYTRFYYWGQGTQVTVSS”, the “polyreactivity (PSR sort gate)” value is “high polyreactivity”. On to “QVQLVESGGCLVQAGGSLRLSCAASGLIFYENAMGWYRQAPGKERELVAAINYDGDSTYYADSVKGRFTISRDNAKITVYLQMNSLKPEDTAVYYCAADGGWVLFWMDYWGQGTQVTVSS”, for which the “polyreactivity (PSR sort gate)” value is “low polyreactivity”.

For the sequence “QVQLVESGGCLVQAGGSLRLSCAASGLTFRYYAMGWYRQAPGKERELVAAITASVGSTYYADSVKGRFTISRDNAKNTVYLQMNSLKPEDTAVYYCAADSEQDNLRYYRWVWYDYWGQGTQVTVSS”, the “polyreactivity (PSR sort gate)” value is listed as “low polyreactivity”. In the case of “QVQLVESGGCLVQAGGSLRLSCAASGNTFTSYAMGWYRQAPGKERELVAAISASGSSTYYADSVKGRFTISRDNAKNTVYLQMNSLKPEDTAVYYCNAVKYRVESSYDYWGQGTQVTVSS”, the “polyreactivity (PSR sort gate)” value is recorded as “low polyreactivity”. Turning to “QVQLVESGGCLVQAGGSLRLSCAASGNTIIRYAMGWYRQAPGKERELVAAISYSGGRTYYADSVKGRFTISRDNAKNTVYLQMNSLKPVDNAVYYCNAASRYGGDYWGQGTQVTVSS”, the “polyreactivity (PSR sort gate)” value is listed as “high polyreactivity”.

For the sequence “QVQLVESGGCLVQAGGSLRLSCAASGRIFGSYTKGWYRQAPGKERELVAAISDSGDSTYADSVKGRFTISRDNAKNTVYLQMNSLKPEDTAVYYCNAKSGSLAGNEYDYWGQGTQVTVSS”, the “polyreactivity (PSR sort gate)” value is “low polyreactivity”. The entry for “QVQLVESGGCLVQAGGSLRLSCAASGRIFRYNTMGWYRQAPGKEREFVASISNGGSTNYADSVKGRFTISRDNAKNTVYLQMNSLKPEDTAVYYCNADVPSDGYPGYPGGFESWGQGTQVTVSS” is “low polyreactivity”.
